Literature values as cited in article PMC4754043 (Human Molecular Genetics, 2015).

Test system: human transmitochondrial cybrid cells and yeast with mt-tRNA mutations
Conditions: human cybrids and yeast; ref [9],[10],[11]

B1: mt-ValRS: mt-valyl-tRNA synthetase (protein, UniProt Q5ST30 27-1063, looked up)
Valine--tRNA ligase, …: SVSTQSEPHGSPISRRNREAKQKRLREKQATLEAEIAGESKSPAESIKAWRPKELVLYEIPTKPGEKKDVSGPLPPAYSPRYVEAAWYPWWVREGFFKPEYQARLPQATGETFSMCIPPPNVTGSLHIGHALTVAIQDALVRWHRMRGDQVLWVPGSDHAGIATQAVVEKQLWKERGVRRHELSREAFLREVWQWKEAKGGEICEQLRALGASLDWDRECFTMDVGSSVAVTEAFVRLYKAGLLYRNHQLVNWSCALRSAISDIEVENRPLPGHTQLRLPGCPTPVSFGLLFSVAFPVDGEPDAEVVVGTTRPETLPGDVAVAVHPDDSRYTHLHGRQLRHPLMGQPLPLITDYAVQPHVGTGAVKVTPAHSPADAEMGARHGLSPLNVIAEDGTMTSLCGDWLQGLHRFVAREKIMSVLSEWGLFRGLQNHPMVLPICSRSGDVIEYLLKNQWFVRCQEMGARAAKAVESGALELSPSFHQKNWQHWFSHIGDWCVSRQLWWGHQIPAYLVVEDHAQGEEDCWVVGRSEAEAREVAAELTGRPGAELTLERDPDVLDTWFSSALFPFSALGWPQETPDLARFYPLSLLETGSDLLLFWVGRMVMLGTQLTGQLPFSKVLLHPMVRDRQGRKMSKSLGNVLDPRDIISGVEMQVLQEKLRSGNLDPAELAIVAAAQKKDFPHGIPECGTDALRFTLCSHGVQAGDLHLSVSEVQSCRHFCNKIWNALRFILNALGEKFVPQPAEELSPSSPMDAWILSRLALAAQECERGFLTRELSLVTHALHHFWLHNLCDVYLEAVKPVLWHSPRPLGPPQVLFSCADLGLRLLAPLMPFLAEELWQRLPPRPGCPPAPSISVAPYPSACSLEHWRQPELERRFSRVQEVVQVLRALRATYQLTKARPRVLLQSSEPGDQGLFEAFLEPLGTLGYCGAVGLLPPGAAAPSGWAQAPLSDTAQVYMELQGLVDPQIQLPLLAARRYKLQKQLDSLTARTPSEGEAGTQRQQKLSSLQLELSKLDKAASHLRQLMDEPPAPGSPEL
- rescue of defects due to mutations in non-cognate as well as cognate mt-tRNAs: able to rescue
